Target: T1, CD3 (human)
T1 chain: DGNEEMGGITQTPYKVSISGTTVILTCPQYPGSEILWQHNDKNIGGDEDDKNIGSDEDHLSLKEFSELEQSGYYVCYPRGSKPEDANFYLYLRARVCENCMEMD
Test: CD3 binding as in Example 2 (ELISA or FCM)

B1: Ly1966 (multi-specific antibody)
chain 1: QVQLQQSGAELVRPGSSVKISCKASGYAFSSYWMNWVKQRPGQGLEWIGQIWPGDGDTNYNGKFKGKATLTADESSSTAYMQLSSLASEDSAVYFCARRETTTVGRYYYAMDYWGQGTTVTVSSASTKGPSVFPLAPSSKSTSGGTAALGCLVKDYFPEPVTVSWNSGALTSGVHTFPAVLQSSGLYSLSSVVTVPSSSLGTQTYICNVNHKPSNTKVDKKVEPKSCGGGGSGGGGSGGGGSGGGGSEVQLVESGGGLVQPGGSLRLSCAASGFTFSTYAMNWVRQAPGKGLEWVGRIRSKYNNYATYYADSVKGRFTISRDDSKNSLYLQMNSLKTEDTAVYYCVRHGNFGNSYVSWFAYWGQGTLVTVSSGGGGSDKTHTCPPCPAPEAAGPSVFLFPPKPKDTLMISRTPEVTCVVVDVSHEDPEVKFNWYVDGVEVHNAKTKPREEQYNSTYRVVSVLTVLHQDWLNGKEYKCKVSNKALPAPIEKTISKAKGQPREPQVYTLPPSREEMTKNQVSLWCLVKGFYPSDIAVEWESNGQPENNYKTTPPVLDSDGSFFLYSKLTVDKSRWQQGNVFSCSVMHEALHNHYTQKSLSLSPGGGGGSGGGGSGGGGSGGGGSQVQLVQSGAEVKKPGASVKVSCKASGYTFAGFEMHWVRQAPGQGLEWMGAIDPKTGGTDYNQKFKDRVTMTRDTSISTAYMELSRLRSDDTAVYYCARDLGYFDVWGQGTLVTVSS
chain 2: QVQLQQSGAELVRPGSSVKISCKASGYAFSSYWMNWVKQRPGQGLEWIGQIWPGDGDTNYNGKFKGKATLTADESSSTAYMQLSSLASEDSAVYFCARRETTTVGRYYYAMDYWGQGTTVTVSSASTKGPSVFPLAPSSKSTSGGTAALGCLVKDYFPEPVTVSWNSGALTSGVHTFPAVLQSSGLYSLSSVVTVPSSSLGTQTYICNVNHKPSNTKVDKKVEPKSCGGGGSGGGGSGGGGSGGGGSQAVVTQEPSLTVSPGGTVTLTCRSSTGAVTTSNYANWVQQKPGQAPRGLIGGTNKRAPWTPARFSGSLLGGKAALTITGAQAEDEADYYCALWYSNLWVFGGGTKLTVLGGGGSDKTHTCPPCPAPEAAGPSVFLFPPKPKDTLMISRTPEVTCVVVDVSHEDPEVKFNWYVDGVEVHNAKTKPREEQYNSTYRVVSVLTVLHQDWLNGKEYKCKVSNKALPAPIEKTISKAKGQPREPQVYTLPPSREEMTKNQVSLSCAVKGFYPSDIAVEWESNGQPENNYKTTPPVLDSDGSFFLVSKLTVDKSRWQQGNVFSCSVMHEALHNRFTQKSLSLSPGGGGGSGGGGSGGGGSGGGGSDIQMTQSPSSLSASVGDRVTITCRASQDIRSNLNWYQQKPGGAVKLLIYYTSRLHSGVPSRFSGSGSGTDYTLTISSLQPEDFATYFCQQSEKLPRTFGGGTKVEIR
chain 3: not shown
notes: CD19/CD3/CD137
Q: How did the EC50 turn out when B1 was run?
A: The EC50 was 0.348 µg/mL.

— patent publication EP4803150A2 (Lyvgen Biopharma Holdings Limited, dated 2026)
